T1: recombinant C fragment of tetanus neurotoxin (Clostridium tetani, UniProt P04958 865-1315)
T1 construct: domain: C fragment
T1 sequence: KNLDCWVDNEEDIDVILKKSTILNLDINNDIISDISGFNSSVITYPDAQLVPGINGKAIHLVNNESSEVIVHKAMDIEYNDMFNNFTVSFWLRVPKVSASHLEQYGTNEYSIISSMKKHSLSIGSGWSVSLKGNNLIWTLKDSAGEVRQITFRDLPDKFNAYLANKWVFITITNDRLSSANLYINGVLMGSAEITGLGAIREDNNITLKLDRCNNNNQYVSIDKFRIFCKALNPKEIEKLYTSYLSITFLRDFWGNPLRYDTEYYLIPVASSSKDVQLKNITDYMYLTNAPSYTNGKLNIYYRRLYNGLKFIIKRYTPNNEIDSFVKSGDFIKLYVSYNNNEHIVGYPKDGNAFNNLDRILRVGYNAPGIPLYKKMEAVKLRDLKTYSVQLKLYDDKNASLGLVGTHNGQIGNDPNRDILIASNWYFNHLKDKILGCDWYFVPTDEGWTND


Columns and labels:
Hen Egg Lysozyme = molecular target: T2, Hen Egg Lysozyme (hen, UniProt P00698 19-147); assay: inhibition ELISA, binding competed with free antigen
T2 construct: also called HEL

Protein A = molecular target: T3, Protein A (UniProt P38507 37-477); assay: Protein A-Sepharose chromatography
T3 construct: also called Protein A-SEPHAROSE

[1] = molecular target: T1, recombinant C fragment of tetanus …; assay: ELISA, bacterial extract

Row | Binder | Ki (Hen Egg Lysozyme) | binding result (Protein A) | binding result [1]
1 | camel VHH α-LYS3 (anti-lysozyme) (VHH, also called LYS3 VHH; pHEN4-αLYS3) VHH: DVQLQASGGGSVQAGGSLRLSCAASGYTIGPYCMGWFRQAPGKEREGVAAINMGGGITYYADSVKGRFTISQDNAKNTVYLLMNSLEPEDTAIYYCAADSTIYASYYECGHGLSTGGYGYDSWGQGTQVTVSS | ~500 nM | no binding | –
2 | camel VHH αTT2 (anti-tetanus toxoid) (VHH) VHH: EVQLQASGGGSVQAGGSLRLSCTAANYAFDSKTVGWFRQVPGKEREGVAGISSGGSTTAYSDSVKGRYTVSLENAKNTVYLLIDNLQPEDTAIYYCAGVSGWRGRQWLLLAETYRFWGQGTQVTVSS | – | – | no binding
3 | camel VHH α-LYS2 (anti-lysozyme) (VHH, also called LYS2 VHH; pHEN4-αLYS2) VHH: EVQLQASGGGSVQAGQSLRLSCATSGATSSSNCMGWFRQAPGKEREGVAVIDTGRGNTAYADSVQGRLTISLDNAKNTLYLQMNSLKPEDTAMYYCAADTSTWYRGYCGTNPNYFSYWGQGTQVTVSS | ~50 nM | – | –

From patent US7655759 (VRIJE UNIVERSITEIT BRUSSEL, dated 2010)
